The data set concerns the molecule itself. Put plainly: SDS-PAGE after partial denaturation; fractionated fimbriae in loading buffer with 1% SDS and 0.5 M 2-mercaptoethanol heated at 37, 60 and/or 80°C for 10 min; CBB staining and western blotting. For orientation: A western blot detects proteins with antibodies after separation by electrophoresis.

B1: Mfa1 (Mfa1 fimbriae purified from the fimA gene-deletion mutant of P. gingivalis ATCC 33277) (natural protein)
chain: AGDGQDQANPDYHYVGEWAGKDKIEKVSIYMVPQGGPGLVESAEDLDFGTYYENPTIDPATHNAILKPKKGIKVNSAVGKTVKVYVVLNDIAGKAKALLANVNAADFDAKFKEIIELSTQAQALGTVADGPNPATAAGKIAKKNGTTDETIMMTCLQPSDALTIEAAVSEANAIAGIKNQAKVTVERSVARAMVSTKAQSYEIKATTQIGEIAAGSVLATITDIRWVVAQGERRQYLSKKRGTVPENTWVTPGSGFVPTSSTFHTNATEYYDYAGLWEDHNTNEAVISGTQVPTLADYQLQDVTGELANALSGKFLLPNTHKSGANAASSDYKRGNTAYVLVRAKFTPKKEAFIDRGKTYSDNTAVPEYVAGEDFFVGENGQFYVSMKSVTDPKVGGVAGMKAHKYVKGKVLYYAWLNPSTTSPDSWWNSPVVRNNIYHIHIKSIKKLGFNWNPLVPDPDPSNPENPNNPDPNPDEPGTPVPTDPENPLPDQDTFMSVEVTVLPWKVHSYEVDL
notes: source: fimA gene-deletion mutant derived from P. gingivalis ATCC 33277; fractionated by ammonium sulfate precipitation and DEAE Sepharose chromatography
In the case of B1, the binding result is recorded as “binds”.

The values are drawn from article PMC5351860, “Novel fimbrilin PGN_1808 in Porphyromonas gingivalis” (PLoS ONE, 2017).
